Legend:
Type in all cases: biochemical
[1] = tested on: FITC-labelled LPQTGE peptide and GGGK-biotin; assay: Optimization of sortase conjugation reaction conditions, HPLC-based assay; conditions: initial rate (samples up to 3 hours), RP-HPLC, pH 8.5, NaCl, 25° C.
Protocol: The reaction was performed at 25° C. over a period of 24 hours (with 6 samplings in the period up to 3 hours), independently varying the following parameters: • pH over a range of 4 to 11 (using a mixture of boric and citric acid, along with phosphate buffer to achieved the desired pH), while the concentration of NaCl at 500 mM; • NaCl concentration over a range of 0 to 3 M, while maintaining the pH at 8.5 (using 50 mM of sodium phosphate to establish the desired pH).
The reaction was stopped by adding 95 μL of 0.05 M HCl per 5 μL of reaction mixture. Reaction products were loaded into XBridge C18 HPLC columns equilibrated in 0.1% NH4OH in 5% methanol. Elution was performed with a linear gradient from 0 to 100% of 0.1% NH4OH in 95% methanol over 10 mL at flow rate of 0.5 mL/min and a temperature of 30° C. Eluted peptides were detected by absorbance at 497 nm and fluorescence at 522 nm (excitation at 497 nm) and peak areas were quantified.

[2] = tested on: FITC-labelled LPXTGE, DNPNTGDE, ENPXTNAGT, KLPXTASN and ALAXTGSE peptides; assay: Sortase activity assay, gel-based, FITC-labelled peptide substrates; conditions: conjugation to 60 kDa Gly6 protein, 25° C., 6 to 24 hours, FITC emission
Protocol: The reaction was performed at 25° C. for 6 to 24 hours, and stopped by addition of reducing SDS-PAGE loading buffer, followed by 5 min. incubation at 95° C. Reaction products were loaded on a 12% SDS-PAGE gel and run according to standard protocols. Labelled reaction products were visualized by FITC emission using the FLA-9000 Imager from Fujifilm, and quantified using ImageJ software.

[3] = tested on: self-quenching peptide Dabcyl-QALPQTGET-Edans and triglycine; assay: Optimization of sortase conjugation reaction conditions, fluorescence assay; conditions: initial rate, temperature varied 15 to 45° C., pH 8.5, 500 mM NaCl
Protocol: Reactions were performed over a period of 1 hour, varying the reaction temperature between 15 and 45° C. and measuring fluorescence over time (using a plate reader or fluorescence spectrometer, with excitation at 350 nm and emission at 495 nm).
Initial rate of sortase F-mediated ligation at different temperatures was evaluated based on regression of the fluorescence over time.

B1: sortase F: recombinant sortase F enzyme from P. acnes KPA171202, with N-terminal MS peptide and C-terminal TwinStrep-comprising tag (protein)
chain: TTTSSTSGIPAASAAKKGPVPAGCMKTPKPIVPVKYSIDGMKASAKVLSRGVDETGAAGAPPKNDPSSMAWFNQGPKIGSDKGNAVLTAHTYHKGGALGNRLYDKNNGIKKGDIIRLTDKTGQTVCYRYDHDTKVMVKDYNPNSNILYDNNGPAQAAIVICWDYVKKTGEFDSRVIFYTYPVA
modifications: Propionibacterium acnes
Q: How did the “salt concentration optimum for initial sortase F activity rate” value [1] turn out when B1 was run?
A: above 250 mM

Q: And the “substrate peptide on which the enzyme is active” value [2]?
A: principally active on the LPXTGE

Q: What about the “temperature above which the reaction rate decreased” value [3] of the same molecule?
A: above 40 °C

Q: What about the “temperature optimum of sortase F activity rate” value [3] of the same molecule?
A: about 25 °C

From patent publication US12533420B2 (NBE-Therapeutics AG, priority 2018, dated 2026)
